Test results reported in US7378498B2, “Protein encoded by a nucleic acid” (The Johns Hopkins University School of Medicine, priority 1998, dated 2008).

Key:
[1] = target: binding of mGluR1a or mGluR5 to each of the Homer family members; experiment: Synthetic peptide block of mGluR1a/mGluR5 binding to Homer family members; conditions: synthetic 10 mer peptides, read-out: peptide concentration at which approximately half of the binding was blocked
Experimental: This exquisite sensitivity of Homer binding to changes in single amino acids within the Homer-ligand site was confirmed in other Homer-interacting proteins including mGluR1a (Tu et al., 1998), Shank (Tu et al., 1999), and I42 (see below). To further confirm that the interaction was mediated by a direct interaction at the Homer-ligand site (as opposed to a secondary allosteric effect on a remote binding site), synthetic 10-mer peptides with either the wild type, or F-to-R mutation were prepared. The wild type peptide blocked binding of mGluR1a or mGluR5 to each of the Homer family members (Tu et al., 1998). Approximately half of the binding was blocked at a peptide concentration of 3.4 micromolar.
Mutations of mGluR5 were initially tested in the context of a 250aa C-terminal fragment, but were also determined to have an identical effect on binding when placed in the full length mGluR5 protein (Tu et al., 1998). This exquisite sensitivity of Homer binding to changes in single amino acid within the Homer-ligand site has been confirmed in other Homer-interacting proteins including mGluR1a (Tu et al., 1998), Shank (Tu et al., 1999) and I42 (see below). […] Approximately half of the binding was blocked at a peptide concentration of 3.4 micromolar.

[2] = tested on: mGluR-evoked Ca^+2 responses in Purkinje cells; experiment: Fura-2 ratio imaging of quisqualate-evoked Ca2+ mobilization in transfected cerebellar Purkinje cells; format: cell-based, mouse; conditions: for mGluR-evoked Ca^+2 response amplitude / mGluR-evoked Ca^+2 response latency: mean±SEM, transfected Purkinje cells, quisqualate micropressure pulse, Ca^+2-free external saline
From the text: The truncated Homer protein used lacks the coiled-coil domain and is unable to form a bridge linking the mGluR at the cell surface with intracellular inositol trisphosphate receptors. The truncated form of Homer protein resembled Homer 1a with the exception of 11 residues at the carboxy-terminal. This form of Homer results in enhanced expression of Homer protein as compared with transfection of Homer 1a in heterologous cells. The Homer protein was introduced into Purkinje cells in primary cerebellar cultures and glutamate induced effects on calcium mobilization was measured.
Embryonic mouse cerebellar cultures were prepared and maintained according to the method of Schilling et al. (Schilling et al., Neuron 7:891 1991). At 4-5 DIV, cultures were transfected with plasmids coding for E-GFP (Clontech) and either full-length Homer 1b or an IEG form of Homer 1. The IEG form of Homer 1 was a 186 amino acid amino-terminal fragment of Homer 1b. Plasmids were purified by cesium banding. Three combinations of the plasmids were transfected. Group I (control), 20 Tg of E-GFP and 40 Tg of pRK5 vector; group II, 20 Tg of E-GFP and 40 Tg of pRK5 Homer 1 IEG; group III: 20 Tg of E-GFP and 40 Tg of pRK5 Homer 1b. Plasmid DNA was mixed with gold particles (0.6 micron), and coated onto plastic tubing. DNA was then ballistically transfected into cells according to the manufacturer's protocol (Helios Gene Gun System, BIO-RAD). After transfection, cultures were returned to the incubator and maintained for an additional […] for a total of 7-8 DIV at the time of use for imaging experiments.
Patch electrodes were attached to the somata of GFP-expressing Purkinje cells and a holding potential of −60 mV was applied. Micropressure electrodes (1 Tm tip diameter) were filled with quisqualate (100 Tm in external saline) and were positioned ˜20 Tm away from large-caliber dendrites. Test pulses were delivered using positive pressure (6 psi, 1 sec). Cells were bathed in a solution that contained (in mM) NaCl (140), KCl (5), EGTA (0.2), MgCl2 (0.8), HEPES (10), glucose (10), tetrodotoxin (0.005), and picrotoxin (0.1), adjusted to pH 7.35 with NaOH, which flowed at a rate of 0.5 ml/m The recording electrode contained CsCl (135), HEPES (10), fura-2 K5 salt (0.2), and Na2-ATP (4), adjusted to pH 7.35 with CSOH. Patch electrodes yielded a resistance of 3-5 MA when measured with the internal and external salines described above.
Fura-2 ratio imaging of intracellular free Ca^2+, was accomplished by measuring the background corrected fluorescence ratio at 340 and 380 nm excitation using a cooled CCD camera system, as previously described (Linden et al., J Neurosci 15:5098 1995). Exposure times were 200 msec per single wavelength image. Experiments were conducted at room temperature. Enhanced GFP is weakly excited by illumination in the 380-400 nm spectrum. Based upon the bandpass characteristics of our 340HT15 and 380HT10 excitation filters and the absorption spectrum of enhanced GFP (Clontech), we estimate that <1% of the signal at 340 nm excitation and <5% of the signal at 380 nm excitation is contributed by GFP, even in those cells where the fura/GFP loading ratio is smallest. This could lead to a small (<5%) systemic underestimation of free calcium concentration that should distribute randomly across experimental groups.
Calcium mobilization in the absence of influx was measure by ratio imaging fura-2 in Purkinje cells bathed in Ca^+2-free external saline and stimulated with a micropressure pulse of quisqualate, a metabotropic glutamate receptor agonist (Linden, Neuron 17:483 1996). […] The decay phase of the Ca^+2 response appeared somewhat slower in neurons transfected with the truncated form. […]

| Molecule | mGluR-evoked Ca^+2 response amplitude [2] | mGluR-evoked Ca^+2 response latency [2] | other results |
| --- | --- | --- | --- |
| synthetic 10 mer peptide with the wild type Homer-ligand site; possibly SEQ ID NO:14 ALTPPSPFRD (extended region for peptide binding) [wild type peptide] | – | – | IC50 [1]: ~3.4 µM |
| C1CCC[C@H]2CCCN3CC[C@@H](CCCCCC[C@@H]4CCCN5CC[C@@H](CC1)O[C@@H]45)O[C@@H]23 [xestospongin C, reference compound] | – | – | block of quisqualate-evoked Ca^+2 transient ([2]; 1 TM in the internal saline): completely blocked |
| CC(N)(C(=O)O)c1ccc(C(=O)O)cc1 (single isomer, unassigned; (+)) [(+)-MCPG, reference compound] | – | – | block of quisqualate-evoked Ca^+2 transient ([2]; 500 TM in the bath): completely blocked |
| truncated form of Homer: 186 amino acid amino-terminal fragment of Homer 1b, lacks the coiled-coil domain, expressed by transfection (protein, left off: small tags and cut ends, 186 amino acid amino-terminal fragment of Homer 1b, lacks the coiled-coil domain, expressed by transfection) MGEQPIFSTRAHVFQIDPNTKKNWVPTSKHAVTVSYFYDSTRNVYRIISLDGSKAIINSTITPNMTFTKTSQKFGQWADSRANTVYGLGFSSEHHLSKFAEKFQEFKEAARLAKEKSQEKMELTSTPSQESAGGDLQSPLTPESINGTDDERTPDVTQNSEPRAEPTQNALPFPHSSAISKHWEAE | 170 ± 9 nM | 10.5 ± 1.8 s | – |
| Homer 1b: full-length Homer 1b expressed from pRK5 plasmid in Purkinje cells (protein, listed as Homo sapiens) MGEQPIFSTRAHVFQIDPNTKKNWVPTSKHAVTVSYFYDSTRNVYRIISLDGSKAIINSTITPNMTFTKTSQKFGQWADSRANTVYGLGFSSEHHLSKFAEKFQEFKEAARLAKEKSQEKMELTSTPSQESAGGDLQSPLTPESINGTDDERTPDVTQNSEPRAEPTQNALPFSHSSAISKHWEAELATLKGNNAKLTAALLESTANVKQWKQQLAAYQEEAERLHKRVTELECVSSQANAVHTHKTELNQTIQELEETLKLKEEEIERLKQEIDNARELQEQRDSLTQKLQEVEIRNKDLEGQLSDLEQRLEKSQNEQEAFRNNLKTLLEILDGKIFELTELRDNLAKLLECS | 244 ± 17 nM | 4.2 ± 0.9 s | – |
